Test results: US20060259987A1 (UNIVERSITY OF UTAH RESEARCH FOUNDATION, published 2006)
Numbering of substitutions follows the chain as printed. In names and notes the source's numbering stands. Values belong to the binder of their own block, whether it stands above or below them.

How the values were obtained:
thrombin [1] = target: T1, thrombin (human, UniProt P00734 328-622); experiment: Kapp IIa/hep relative to plasma.at3
factor Xa [2] = target: T2, factor Xa (human, UniProt P00742 41-179; P00742 235-488, limits assumed); experiment: Kapp fXa/hep relative to plasma.at3
T2 construct: also called fXa; human factor Xa
T2 sequence (P00742 41-179 limits assumed, chain 1 of 2): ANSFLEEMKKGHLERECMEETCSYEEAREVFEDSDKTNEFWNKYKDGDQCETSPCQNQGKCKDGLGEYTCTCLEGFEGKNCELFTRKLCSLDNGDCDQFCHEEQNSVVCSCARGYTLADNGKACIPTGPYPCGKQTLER
T2 sequence (P00742 235-488 limits assumed, chain 2 of 2): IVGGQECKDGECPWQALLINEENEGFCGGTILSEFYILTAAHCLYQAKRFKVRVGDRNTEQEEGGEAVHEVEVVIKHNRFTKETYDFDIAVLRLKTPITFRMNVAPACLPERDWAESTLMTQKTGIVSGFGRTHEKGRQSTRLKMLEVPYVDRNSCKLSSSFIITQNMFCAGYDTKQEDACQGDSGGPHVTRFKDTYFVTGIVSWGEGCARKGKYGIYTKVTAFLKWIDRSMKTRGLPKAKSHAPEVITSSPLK

thrombin [3] = target: T1, thrombin; experiment: Kapp IIa/prog relative to plasma.at3
factor Xa [4] = target: T2, factor Xa; experiment: factor Xa prog: pseudo-first-order loss of chromogenic activity, no heparin, 25 C
Description: (§1) Polybrene was added with the chromogenic substrate to quench the heparin dependent reaction. […] This was plotted against the heparin concentration to calculate the second-order rate constant for the inhibition by the heparin-ATIII complex, (Kₕₑₚ) from the equation Kobs=Kₕₑₚ[H]ₒ([AT]ₒ/[AT]ₒ+Kd)+Kuncat[AT]ₒ

factor Xa [5] = target: T2, factor Xa; experiment: cell-based or functional assay
thrombin [6] = target: T1, thrombin; experiment: cell-based or functional assay
factor Xa [7] = target: T2, factor Xa; experiment: Kapp fXa/prog relative to plasma.at3
thrombin [8] = target: T1, thrombin; experiment: thrombin prog: pseudo-first-order loss of chromogenic activity, no heparin, 25 C
Description: as §1

human factor Xa [9] = target: T3, human factor Xa (human, UniProt P00742 41-179; P00742 235-488, limits assumed); experiment: residual enzyme activity against time, pseudo-first-order, with heparin
T3 construct: the active enzyme is a two-chain form of it; also called fXa
Description: Polybrene was added with the chromogenic substrate to quench the heparin dependent reaction. The observed pseudo-first-order rate constants were calculated for each heparin (1 nM-5 nM) concentration from the slope of the log of residual proteinase activity vs. time. This was plotted against the heparin concentration to calculate the second-order rate constant for the inhibition by the heparin-ATIII complex, (Kₕₑₚ) from the equation Kobs=Kₕₑₚ[H]ₒ([AT]ₒ/[AT]ₒ+Kd)+Kuncat[AT]ₒ

human factor Xa [10] = target: T3, human factor Xa; experiment: residual enzyme activity against time, pseudo-first-order, progressive (no heparin)
human thrombin [11] = target: T4, human thrombin (human, UniProt P00734 328-622); experiment: as above
[12] = target: T5, human neutrophil elastase (human, UniProt P08246 30-247, limits assumed); experiment: cell-based or functional assay
T5 sequence (looked up): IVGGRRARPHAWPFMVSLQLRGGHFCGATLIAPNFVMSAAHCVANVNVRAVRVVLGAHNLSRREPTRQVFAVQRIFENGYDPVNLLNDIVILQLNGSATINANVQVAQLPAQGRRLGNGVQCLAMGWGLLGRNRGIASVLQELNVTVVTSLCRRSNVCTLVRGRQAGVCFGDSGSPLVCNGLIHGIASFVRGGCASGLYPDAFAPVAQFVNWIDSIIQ

human thrombin [13] = target: T4, human thrombin; experiment: thrombin inhibition rate in the absence of heparin
[14] = target: T5, human neutrophil elastase; experiment: cell-based or functional assay; remark: listed apart in the source
[15] = target: T6, human neutrophil cathepsin G (human, UniProt P08311 21-244); experiment: cell-based or functional assay
T6 sequence (looked up): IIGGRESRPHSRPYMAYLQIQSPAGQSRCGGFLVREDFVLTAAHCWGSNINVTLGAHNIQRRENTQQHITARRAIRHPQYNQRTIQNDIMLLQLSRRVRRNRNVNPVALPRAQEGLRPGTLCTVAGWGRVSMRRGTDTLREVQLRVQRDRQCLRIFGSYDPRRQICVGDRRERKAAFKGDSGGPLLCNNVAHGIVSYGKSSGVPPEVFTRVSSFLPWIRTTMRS

human thrombin [16] = target: T4, human thrombin; experiment: cell-based or functional assay
human factor Xa [17] = target: T3, human factor Xa; experiment: cell-based or functional assay
human thrombin [18] = target: T4, human thrombin; experiment: thrombin inhibition rate in the presence of heparin (HAH)
thrombin [19] = target: thrombin (human, UniProt P00734 328-622); experiment: heparin cofactor assay, HCA expt #4; ATIII titrated on 10 nM thrombin + 50 ug/ml UFH, chromogenic readout
Description: (§2) After 3 minutes, the reactions were quenched with polybrene and chromogenic substrate S2238 (thrombin) or S2765 (fXa), and the initial rate of chromophore production (405 nm) recorded to obtain a measurement residual, uninhibited thrombin or factor Xa. IC50s were determined from plots of ATIII concentration vs. percent residual target enzyme activity.

factor Xa [20] = target: T7, factor Xa (human, UniProt P00742 41-179; P00742 235-488, limits assumed); experiment: heparin cofactor assay, HCA expt #4; ATIII titrated on 10 nM fXa + 50 ug/ml UFH, chromogenic readout
T7 construct: Active factor Xa has a light and a heavy chain; also called fXa
Description: as §2
T7 sequence (P00742 41-179 limits assumed, form in doubt, chain 1 of 2): as the sequence (P00742 41-179 limits assumed, chain 1 of 2) above
T7 sequence (P00742 235-488 limits assumed, form in doubt, chain 2 of 2): as the sequence (P00742 235-488 limits assumed, chain 2 of 2) above

T3 sequence (P00742 41-179 limits assumed, chain 1 of 2): as the sequence (P00742 41-179 limits assumed, chain 1 of 2) above
T3 sequence (P00742 235-488 limits assumed, chain 2 of 2): as the sequence (P00742 235-488 limits assumed, chain 2 of 2) above

B2: LEAI.472 (other)
chain: SPVDICTAKPRDIPMNPMCIYRSPEKKATEDEGSEQKIPEATNRRVWELSKANSRFATTFYQHLADSKNDNDNIFLSPLSISTAFAMTKLGACNDTLQQLMEVFKFDTISEKTSDQIHFFFAKLNCRLYRKANKASKLVSANRLFGDKSLTFNETYQDISELVYGAKLQPLDFKENAEQSRAAINKWVSNKTEGRITDVIPSEAINELTVLVLVNTIYFKGLWKSKFSPENTRKELFYKADGESCSASMMYQEGKFRYRRVAEGTQVLELPFKGDDITMVLILPKPEKSLAKVEKELTPEVLQEWLDELEEMMLVVHMPRFRIEDGFSLKEQLQDMGLVDLFSPEKSKLPGIVAEGRDDLYVSDAFHKAFLEVNEEGSEAAASTALEANGRSLNPNRVTFKANRPFLVFIREVPLNTIIFMGRVANPCVK
notes: Recombinant human ATIII variant made in Drosophila S2 cells on the S137A background
kapp (apparent second-order inhibition rate constant) (human factor Xa [9]): 298000 M⁻¹ s⁻¹
kapp (apparent second-order inhibition rate constant) (human factor Xa [10]): 1800 M⁻¹ s⁻¹
kapp (apparent second-order inhibition rate constant) (human thrombin [11]): 278 M⁻¹ s⁻¹
halflife, min (HNE/hep) [12]: 30.1 min

B4: 7EVEA.458 (other)
chain: B2 chain with A385E, L386V, N389A, G390P
modifications: N-linked glycans added by Drosophila S2 cells; not carried by the letters
notes: Made in Drosophila S2 cells (DES) on the S137A background; N-terminus printed as SPVDI---
IC50 (thrombin [19]): > 1000 nM
IC50 (factor Xa [20]): 250 nM

B6: 7EVEA.455 (other)
chain: B2 chain with A385E, L386V, A388V, N389A
modifications: N-linked glycans added by Drosophila S2 cells; not carried by the letters
notes: as for B4
IC50 (thrombin [19]): > 1000 nM
IC50 (factor Xa [20]): 110 nM

B7: 13C.438 (other)
chain: B2 chain with A385E, A388N, N389A
modifications: N-linked glycans added by Drosophila S2 cells; not carried by the letters
notes: as for B4
IC50 (thrombin [19]): > 1000 nM
IC50 (factor Xa [20]): 22 nM

B8: 13C (other)
chain: B2 chain with A385E, A388G, N389A
notes: N-terminus printed as SPVDI---; text (ELEG) and primer codon GAG give E
IC50 (thrombin [19]): > 1000 nM
IC50 (factor Xa [20]): 33 nM

B10: 7EVEA.459 (other)
chain: B2 chain with A385E, L386V, A388I, N389A, G390P
notes: as for B4
IC50 (thrombin [19]): > 1000 nM
IC50 (factor Xa [20]): 75 nM

Now from value to binder:

Kapp as a percentage of the plasma ATIII value (thrombin [1]): 3%
Kapp as a percentage of the plasma ATIII value (factor Xa [2]): 52%
Kapp as a percentage of the plasma ATIII value (thrombin [3]): 4%
kapp (apparent second-order inhibition rate constant) (factor Xa [4]): 1800 M⁻¹ s⁻¹
IC50 fXa/UFH; HCA #3 (factor Xa [5]): 15 nM
IC50 fXa/UFH; HCA #4 (factor Xa [5]): 38 nM
rsd. Xa catG; CA #15; stg1 conc 200 (factor Xa [5]): 0%
rsd. Xa hne; CA #15; stg1 conc 200 (factor Xa [5]): 1%
rsd. Xa no add; CA #15; stg1 conc 200 (factor Xa [5]): 0%
IC50 IIa/UFH; HCA #3 (thrombin [6]): 110 nM
IC50 IIa/UFH; HCA #4 (thrombin [6]): 200 nM
rsd. IIa catG; CA #15; stg1 conc 200 (thrombin [6]): 1%
rsd. IIa hne; CA #15; stg1 conc 200 (thrombin [6]): 21%
rsd. IIa no add; CA #15; stg1 conc 200 (thrombin [6]): 0%
Kapp as a percentage of the plasma ATIII value (factor Xa [7]): 86%
kapp (apparent second-order inhibition rate constant) (thrombin [8]): 278 M⁻¹ s⁻¹
B1: LEAI.472 (other)
chain: B2 chain

kapp (apparent second-order inhibition rate constant) (human factor Xa [9]): 1.25e+06 M⁻¹ s⁻¹
Kapp, thrombin progressive (human thrombin [13]): 2700 M⁻¹ s⁻¹
kapp (apparent second-order inhibition rate constant) (human factor Xa [10]): 10700 M⁻¹ s⁻¹
rsd IIa, HNE (CA #51, stg 1 conc 200) [14]: 2%
rsd IIa, HNE (CA #52, stg 1 conc 200) [14]: 3%
rsd Xa, HNE (CA #51, stg 1 conc 200) [14]: -3%
rsd Xa, HNE (CA #52, stg 1 conc 200) [14]: 3%
rsd IIa, catG (CA #51, stg 1 conc 200) [15]: 2%
rsd IIa, catG (CA #52, stg 1 conc 200) [15]: 3%
rsd Xa, catG (CA #51, stg 1 conc 200) [15]: -2%
rsd Xa, catG (CA #52, stg 1 conc 200) [15]: 1%
IC50 IIa/UFH (HCA #5) (human thrombin [16]): 65 nM
IC50 IIa/UFH (HCA #6) (human thrombin [16]): 55 nM
IC50 IIa/UFH; HCA #2 (human thrombin [16]): 65 nM
IC50 IIa/UFH; HCA #3 (human thrombin [16]): 47 nM
IC50 IIa/UFH; HCA #4 (human thrombin [16]): 50 nM
rsd IIa, no add (CA #51, stg 1 conc 200) (human thrombin [16]): 2%
rsd IIa, no add (CA #52, stg 1 conc 200) (human thrombin [16]): 4%
IC50 fXa/UFH (HCA #5) (human factor Xa [17]): 23 nM
IC50 fXa/UFH (HCA #6) (human factor Xa [17]): 33 nM
IC50 fXa/UFH; HCA #2 (human factor Xa [17]): 20 nM
IC50 fXa/UFH; HCA #3 (human factor Xa [17]): 16 nM
IC50 fXa/UFH; HCA #4 (human factor Xa [17]): 13 nM
rsd Xa, no add (CA #51, stg 1 conc 200) (human factor Xa [17]): -1%
rsd Xa, no add (CA #52, stg 1 conc 200) (human factor Xa [17]): 2%
kapp (apparent second-order inhibition rate constant) (human thrombin [11]): 2680 M⁻¹ s⁻¹
halflife, min (HNE/hep) [12]: 38.4 min
Kapp, thrombin HAH (human thrombin [18]): 2e+06 M⁻¹ s⁻¹
B3: LEAI.474 (other)
chain: B2 chain with N389Q
notes: Recombinant human ATIII variant made in Drosophila S2 cells on the S137A background; also called DES.LEAI.474; LEAQ parent

kapp (apparent second-order inhibition rate constant) (human factor Xa [9]): 831000 M⁻¹ s⁻¹
kapp (apparent second-order inhibition rate constant) (human factor Xa [10]): 5360 M⁻¹ s⁻¹
kapp (apparent second-order inhibition rate constant) (human thrombin [11]): 2920 M⁻¹ s⁻¹
halflife, min (HNE/hep) [12]: 25.3 min
B5: LEAI.482 (other)
chain: B2 chain with N389H
notes: as for B2

kapp (apparent second-order inhibition rate constant) (human factor Xa [9]): 489000 M⁻¹ s⁻¹
kapp (apparent second-order inhibition rate constant) (human factor Xa [10]): 24100 M⁻¹ s⁻¹
kapp (apparent second-order inhibition rate constant) (human thrombin [11]): 7310 M⁻¹ s⁻¹
halflife, min (HNE/hep) [12]: 19.9 min
B9: LEAI.480 (other)
chain: B2 chain with N389Y
notes: as for B2

Kapp as a percentage of the plasma ATIII value (thrombin [1]): 159%
Kapp as a percentage of the plasma ATIII value (factor Xa [2]): 192%
Kapp as a percentage of the plasma ATIII value (thrombin [3]): 75%
kapp (apparent second-order inhibition rate constant) (factor Xa [4]): 9550 M⁻¹ s⁻¹
Kapp as a percentage of the plasma ATIII value (factor Xa [7]): 457%
kapp (apparent second-order inhibition rate constant) (thrombin [8]): 5280 M⁻¹ s⁻¹
B11: leai(bv) (other, human, UniProt P01008 33-464, looked up)
chain: HGSPVDICTAKPRDIPMNPMCIYRSPEKKATEDEGSEQKIPEATNRRVWELSKANSRFATTFYQHLADSKNDNDNIFLSPLSISTAFAMTKLGACNDTLQQLMEVFKFDTISEKTSDQIHFFFAKLNCRLYRKAAKSSKLVSANRLFGDKSLTFNETYQDISELVYGAKLQPLDFKENAEQSRAAINKWVSNKTEGRITDVIPSEAINELTVLVLVNTIYFKGLWKSKFSPENTRKELFYKADGESCSASMMYQEGKFRYRRVAEGTQVLELPFKGDDITMVLILPKPEKSLAKVEKELTPEVLQEWLDELEEMMLVVHMPRFRIEDGFSLKEQLQDMGLVDLFSPEKSKLPGIVAEGRDDLYVSDAFHKAFLEVNEEGSEAAASTALEAIGRSLNPNRVTFKANRPFLVFIREVPLNTIIFMGRVANPCVK
notes: mature; also called LEAI (parent)
